From patent US20110118447A1 come the findings set out here.

Residue numbers refer to the chain shown, from its start. In names and notes the source's numbering stands.

Sequences and labels used below:
B1: C5A (XPA23) VL S53N (antibody, V domains shown)
VH: EVQLLESGGGLVQPGGSLRLSCAASGFTFSKYFMFWVRQAPGKGLEWVSVISPSGGMTRYADSVKGRFTISRDNSKNTLYLQMNSLRAEDTAVYYCARVGYGGNSDYWGQGTLVTVSS
VL: DIQMTQSPSSVSASVGDRLTIICRASQDINRWLAWYQQTPGNAPKLLIHSATNLQSGVPSRFSGSGSGTDFTLTINSLQPEDFATYYCQQADSFPLTFGGGTKVEIK
B2: C5A (XPA23) VL S53Y (antibody, V domains shown)
VH: B1 VH
VL: B1 VL with N53Y
B3: C5A (XPA23) VL S93Y (antibody, V domains shown)
VH: B1 VH
VL: B1 VL with N53S, S93Y
B4: C5A (XPA23) VL A91S (antibody, V domains shown)
VH: B1 VH
VL: B1 VL with N53S, A91S
B5: C5A (XPA23) VL S93N (antibody, V domains shown)
VH: B1 VH
VL: B1 VL with N53S, S93N
B6: C5A (XPA23) VL A91D (antibody, V domains shown)
VH: B1 VH
VL: B1 VL with N53S, A91D
B7: C5A (XPA23) VL Q27L (antibody, V domains shown)
VH: B1 VH
VL: B1 VL with Q27L, N53S
B8: C5A (XPA23) VL D92T (antibody, V domains shown)
VH: B1 VH
VL: B1 VL with N53S, D92T
B9: C5A (XPA23) VL S93D (antibody, V domains shown)
VH: B1 VH
VL: B1 VL with N53S, S93D
B10: C5A (XPA23) VL D92S (antibody, V domains shown)
VH: B1 VH
VL: B1 VL with N53S, D92S
B11: C5A (XPA23) VL P95E (antibody, V domains shown)
VH: B1 VH
VL: B1 VL with N53S, P95E
B12: C5A (XPA23) VL L96S (antibody, V domains shown)
VH: B1 VH
VL: B1 VL with N53S, L96S
B13: C5A (XPA23) VL A91N (antibody, V domains shown)
VH: B1 VH
VL: B1 VL with N53S, A91N
B14: C5A (XPA23) VL D28W (antibody, V domains shown)
VH: B1 VH
VL: B1 VL with D28W, N53S
B15: C5A (XPA23) VL D92H (antibody, V domains shown)
VH: B1 VH
VL: B1 VL with N53S, D92H
B16: C5A (XPA23) VL S93R (antibody, V domains shown)
VH: B1 VH
VL: B1 VL with N53S, S93R
B17: C5A (XPA23) VL Q27I (antibody, V domains shown)
VH: B1 VH
VL: B1 VL with Q27I, N53S
B18: C5A (XPA23) VL D28L (antibody, V domains shown)
VH: B1 VH
VL: B1 VL with D28L, N53S
B19: C5A (XPA23) VL S93E (antibody, V domains shown)
VH: B1 VH
VL: B1 VL with N53S, S93E
B20: C5A (XPA23) VL D28V (antibody, V domains shown)
VH: B1 VH
VL: B1 VL with D28V, N53S
B21: C5A (XPA23) VL P95S (antibody, V domains shown)
VH: B1 VH
VL: B1 VL with N53S, P95S
B22: C5A (XPA23) VL A91T (antibody, V domains shown)
VH: B1 VH
VL: B1 VL with N53S, A91T
B23: C5A (XPA23) VL P95D (antibody, V domains shown)
VH: B1 VH
VL: B1 VL with N53S, P95D
B24: C5A (XPA23) VL Q27A (antibody, V domains shown)
VH: B1 VH
VL: B1 VL with Q27A, N53S
B25: C5A (XPA23) VL L96N (antibody, V domains shown)
VH: B1 VH
VL: B1 VL with N53S, L96N
B26: C5A (XPA23) VL D92E (antibody, V domains shown)
VH: B1 VH
VL: B1 VL with N53S, D92E
B27: C5A (XPA23) VL S93H (antibody, V domains shown)
VH: B1 VH
VL: B1 VL with N53S, S93H
B28: C5A (XPA23) VL S53Q (antibody, V domains shown)
VH: B1 VH
VL: B1 VL with N53Q
B29: C5A (XPA23) VL D92N (antibody, V domains shown)
VH: B1 VH
VL: B1 VL with N53S, D92N
B30: C5A (XPA23) VL L96Q (antibody, V domains shown)
VH: B1 VH
VL: B1 VL with N53S, L96Q
B31: C5A (XPA23) VL D28G (antibody, V domains shown)
VH: B1 VH
VL: B1 VL with D28G, N53S
B32: C5A (XPA23) VL S93Q (antibody, V domains shown)
VH: B1 VH
VL: B1 VL with N53S, S93Q
B33: C5A (XPA23) VL D92Q (antibody, V domains shown)
VH: B1 VH
VL: B1 VL with N53S, D92Q
B34: C5A (XPA23) VL D92K (antibody, V domains shown)
VH: B1 VH
VL: B1 VL with N53S, D92K
B35: C5A (XPA23) VL A91E (antibody, V domains shown)
VH: B1 VH
VL: B1 VL with N53S, A91E
B36: C5A (XPA23) VL L96H (antibody, V domains shown)
VH: B1 VH
VL: B1 VL with N53S, L96H
B37: C5A (XPA23) VL A91H (antibody, V domains shown)
VH: B1 VH
VL: B1 VL with N53S, A91H
B38: C5A (XPA23) VL L96T (antibody, V domains shown)
VH: B1 VH
VL: B1 VL with N53S, L96T
B39: C5A (XPA23) VL D28F (antibody, V domains shown)
VH: B1 VH
VL: B1 VL with D28F, N53S
B40: C5A (XPA23) VL D28A (antibody, V domains shown)
VH: B1 VH
VL: B1 VL with D28A, N53S
B41: C5A (XPA23) VL Q27F (antibody, V domains shown)
VH: B1 VH
VL: B1 VL with Q27F, N53S
B42: C5A (XPA23) VL S93T (antibody, V domains shown)
VH: B1 VH
VL: B1 VL with N53S, S93T
B43: C5A (XPA23) VL S93K (antibody, V domains shown)
VH: B1 VH
VL: B1 VL with N53S, S93K

The experiment addresses binding partner of C5A (XPA23). The experiment in a line: Biacore K-off.
For B1, the fold difference in affinity vs original was 1.23 fold.

As for B2, the fold difference in affinity vs original was 1.23 fold.

Take B3: the fold difference in affinity vs original stood at 1.45 fold.

For B4, the fold difference in affinity vs original is 0.9 fold.

Take B5: the fold difference in affinity vs original came to 3.76 fold.

B6: the fold difference in affinity vs original worked out at 1.08 fold.

On to B7, for which the fold difference in affinity vs original is 0.83 fold.

Consider B8, for which the fold difference in affinity vs original came out at 0.34 fold.

In the case of B9, the fold difference in affinity vs original was 4.59 fold.

On to B10, for which the fold difference in affinity vs original came out at 6.59 fold.

Regarding B11, the fold difference in affinity vs original amounted to 0.88 fold.

As to B12, the fold difference in affinity vs original was 0.23 fold.

Consider B13, for which the fold difference in affinity vs original turned out to be 0.1 fold.

Regarding B14, the fold difference in affinity vs original is 3.81 fold.

As for B15, the fold difference in affinity vs original came out at 0.63 fold.

For B16, the fold difference in affinity vs original worked out at 0.91 fold.

In the case of B17, the fold difference in affinity vs original was found to be 0.82 fold.

For B18, the fold difference in affinity vs original turned out to be 9.64 fold.

In the case of B19, the fold difference in affinity vs original stood at 3.71 fold.

For B20, the fold difference in affinity vs original worked out at 0.85 fold.

With B21, the fold difference in affinity vs original is 4.05 fold.

With B22, the fold difference in affinity vs original is 0.67 fold.

Consider B23, for which the fold difference in affinity vs original is 1.32 fold.

As for B24, the fold difference in affinity vs original was 1.47 fold.

Take B25: the fold difference in affinity vs original was 0.06 fold.

For B26, the fold difference in affinity vs original was 0.99 fold.

Take B27: the fold difference in affinity vs original came out at 1.08 fold.

For the molecule B28, the fold difference in affinity vs original was 1.09 fold.

With B29, the fold difference in affinity vs original was determined as 0.67 fold.

Consider B30, for which the fold difference in affinity vs original was 0.21 fold.

Turning to B31, the fold difference in affinity vs original was determined as 1.21 fold.

For the molecule B32, the fold difference in affinity vs original was found to be 1.54 fold.

In the case of B33, the fold difference in affinity vs original was 0.56 fold.

Regarding B34, the fold difference in affinity vs original came out at 0.23 fold.

In the case of B35, the fold difference in affinity vs original was found to be 0.1 fold.

Regarding B36, the fold difference in affinity vs original amounted to 0.07 fold.

As for B37, the fold difference in affinity vs original came to 1.12 fold.

In the case of B38, the fold difference in affinity vs original worked out at 0.06 fold.

Take B39: the fold difference in affinity vs original was 1.43 fold.

With B40, the fold difference in affinity vs original was 0.88 fold.

With B41, the fold difference in affinity vs original amounted to 2.96 fold.

Turning to B42, the fold difference in affinity vs original was 1.47 fold.

B43: the fold difference in affinity vs original came out at 0.86 fold.
